Drawing on PMC11464976, “Insights into structure and activity of a UDP-GlcNAc 2-epimerase involved in secondary cell wall polymer biosynthesis in Paenibacillus alvei” (Frontiers in Molecular Biosciences, 2024), this text covers Km, kcat and kcat/Km for 4 molecules.

The Km is the substrate concentration at which the rate is half of its maximum. By kcat is commonly meant the number of substrate molecules converted per active site and unit of time at saturation. The term kcat/Km denotes the turnover number divided by the Michaelis constant.

Common to all, as to test: purified protein
What all share (assay type): biochemical, Paenibacillus alvei

Series [1] concerns T1, CC(=O)N[C@H]1[C@@H](OP(=O)(O)OP(=O)(O)OC[C@H]2O[C@@H](n3ccc(=O)[nH]c3=O)[C@H](O)[C@@H]2O)O[C@H](CO)[C@@H](O)[C@@H]1O.
T1 construct: amino acids 1-384, Leu-Glu linker and C-terminal His6 tag, pET22b(+), E. coli BL21(DE3), Ni-NTA
To be noted: forward reaction, 10 mM sodium phosphate pH 8.0, 50 mM MgCl2, 30 °C, apparent constant.

Substrate in series [2]: CC(=O)N[C@@H]1[C@@H](OP(=O)(O)OP(=O)(O)OC[C@H]2O[C@@H](n3ccc(=O)[nH]c3=O)[C@H](O)[C@@H]2O)O[C@H](CO)[C@@H](O)[C@@H]1O
The note with it: reverse reaction, 10 mM sodium phosphate pH 8.0, 50 mM MgCl2, 30 °C, 45 min, apparent constant.

Substrate in series [3]: CC(=O)N[C@H]1[C@@H](OP(=O)(O)OP(=O)(O)OC[C@H]2O[C@@H](n3ccc(=O)[nH]c3=O)[C@H](O)[C@@H]2O)O[C@H](CO)[C@@H](O)[C@@H]1O
The note with it: forward reaction, 10 mM sodium phosphate pH 8.0, 50 mM MgCl2, 30 °C, 5 min, apparent constant.

Setting [4] is: kcat 0.05 in text fits printed kcat/Km 0.03, table prints 0.53.

As to “PaMnaA (MnaA.His6) (Paenibacillus alvei; Q42A)”, in series [1] (setting [4]), the Km amounted to 1.61 mM, the kcat worked out at 0.05 s⁻¹ and the kcat/Km came out at 30 M⁻¹ s⁻¹.
“PaMnaA (MnaA.His6) (Paenibacillus alvei; H241A)”: in series [1], the Michaelis constant (Km) came to 3.27 mM, the turnover number (kcat) came to 0.53 s⁻¹ and the specificity constant (kcat/Km) stood at 160 M⁻¹ s⁻¹.
For “PaMnaA (MnaA.His6) (Paenibacillus alvei; Q69A)” the same measures were 8.92 mM, 37.9 s⁻¹ and 4250 M⁻¹ s⁻¹.

B1: PaMnaA (MnaA.His6) (Paenibacillus alvei) (protein)
chain: MSKVKVMTVFGVRPEAIKMAPLILELQKHPEHIESIVCVTAQHRQMLDQVLDVFNIKPDYDLDIMQARQTLNDISVRVLQGLEPVLQEAKPDIVLVHGDTLTTFLASYAAFMQQIKVGHVEAGLRTWNKLSPFPEEMNRQLTGVLADLHFAPTDWSASNLRKENKQDASIFVTGNTVTDVFQYTVRSDYKHEVLDWAQGKRLVLMTAHRRESQGEPHRNIFRAVRRIADEFEDIAIVYPVHPSPAVREPAHEMLGDHPRIKLIDPLDVVDLHNFYPHTHLILTDSGGLQEEAPSFGIPVLVLRETTERPEGIDAGTLELVGTDEEKVYARAKALLSDETTYARMSKAANPYGDGKASQRIVSAILHSFGVLEERPEPFHTKFTN
notes: amino acids 1-384, Leu-Glu linker and C-terminal His6 tag, pET22b(+), E. coli BL21(DE3), Ni-NTA
As to B1, in the series “purified protein [2]”, the Km is on record as 2.41 mM and the kcat was 6.02 s⁻¹. Besides, in the series “purified protein [3]”, the Km turned out to be 3.91 mM, the turnover number (kcat) was found to be 33.4 s⁻¹ and the kcat/Km is 8560 M⁻¹ s⁻¹.
